Assay results published in US20110275699.

Molecular target: bacterially expressed USF-1, P22415
Sequence (P22415 whole entry, looked up): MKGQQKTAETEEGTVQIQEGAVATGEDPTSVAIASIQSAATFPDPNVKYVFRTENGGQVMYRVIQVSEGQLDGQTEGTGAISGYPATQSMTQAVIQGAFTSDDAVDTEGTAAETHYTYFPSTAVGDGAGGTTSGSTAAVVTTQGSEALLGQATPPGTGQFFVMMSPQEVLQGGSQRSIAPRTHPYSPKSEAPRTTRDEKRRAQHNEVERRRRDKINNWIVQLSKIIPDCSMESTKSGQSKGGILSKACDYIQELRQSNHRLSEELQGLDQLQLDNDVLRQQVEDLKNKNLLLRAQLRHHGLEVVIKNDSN

B1: P/CAF (Upstate), recombinant/purified enzyme (protein)
chain: MLEEEVYSQNSPIWDQDFLSASSRTSQLGIQTVINPPPVAGTISYNSTSSSLEQPNAGSSSPACKASSGLEANPGEKRKMTDSHVLEEAKKPRVMGDIPMELINEVMSTITDPAAMLGPETNFLSAHSARDEAARLEERRGVIEFHVVGNSLNQKPNKKILMWLVGLQNVFSHQLPRMPKEYITRLVFDPKHKTLALIKDGRVIGGICFRMFPSQGFTEIVFCAVTSNEQVKGYGTHLMNHLKEYHIKHDILNFLTYADEYAIGYFKKQGFSKEIKIPKTKYVGYIKDYEGATLMGCELNPRIPYTEFSVIIKKQKEIIKKLIERKQAQIRKVYPGLSCFKDGVRQIPIESIPGIRETGWKPSGKEKSKEPRDPDQLYSTLKSILQQVKSHQSAWPFMEPVKRTEAPGYYEVIRFPMDLKTMSERLKNRYYVSKKLFMADLQRVFTNCKEYNPPESEYYKCANILEKFFFSKIKEAGLIDK
in vitro acetylation of USF-1: USF-1 was acetylated in vitro by P/CAF (lane 3), and acetylation was not detected in the absence of P/CAF or acetyl CoA (lane 1 and 2)
